Experimental data taken from the DeepSol protein solubility set.

Assay: soluble on expression in E. coli; label from the status in PepcDB or PDB records

Sequence	soluble on expression in E. coli
MRVKAMASFSPFDVTLWYSTAAPAPLTEPLSGRIQADVCIVGAGYTGLTTALELAKAGVDVVLLERQEIGFGGSGRNAGHCTPTFTHYSLPELRKMLGETWAERLIERQTRANDRVSHMIRDYRINCEWVQNGYVMGAPHKGAIEEIRRKVETYNAVGAKTRLLGRDEVAAITGSPRFHGGWLHEEAGHLNPLAYARGLGGAVIQERGRIFTGSSVTGCERNATGGWKVRTEHGEVIASKVIFTTGAYTVGGWPKLDQTFKIQRVFVAATQILSEETRRTVLPRNTTIHDGRGDIYVYKYNAEGRIVASMFPMGRRGRDIVYTRQVMSDRLKWLHPQISADIRWDYFWFGELDMQYRTVPRLYDLSPGVVALTGLSGRGVPTGSMLGSILSEWALGKPENELALKVEPLKSAPFYMSFAPAMTLRYYRMRDNIATRLAGMELPPHALEHHHHHH	not soluble
MGSDKIHHHHHHMSSYVVSQEDVKNFLNLPSMNDQEGISFAYATDPDALAKLIPAPLKLVAPVVCGYVVHMGKPSFGGPYLEQTLFALVSYKDKMMGSYPLTLLLHGPGAEAGLVAGREGAGIPKKLADHIELRRNDNSASATVERHGKTLLSVDWEAGDVNDPSILQTFGSQFALNKESEMNSFFFTHDLVQDKQGANHFENVELVATQMKSLADRVEPGKLSIQLASTEDDPFGELPVLKPLGAMWYHFATSTMFNTLHLEQVDADKTAPYLITGRYDRSMMNPLATTYII	not soluble
MLTIARRFSGSSICRKQITVGSNNIQVIKNIQDREYEAIWKTIGSTRSDLKKDDIKKFKEAWGNDYHQTLTFLKDSDRLIASNSHVVFRPLKDSKGLENLVFRGNLWISPDVRGSEIMDITDKQSYDVGFSVGNNSMAYATKKTMDQYKNLTGSMDHLHKYYVSNYDFGDLCIPKDLDTSGIVVKNARDVPDTDILKYDAKVFKYERSKYVLGQIREDFGRVAYNEKGDVIGIGAISVYPSGECAITPMYADDIRIARTILKNILEEMTLDAEKYWRLQIRSHDQHTGSYGWIRPFLSTMTHRSEVCTLMCDHKEKGMDFSKVYSTFHADNCPI	not soluble
MGSDKIHHHHHHMKHTLLIKDWLYSFLSLWFPRCCVVCGGSLAKGEECICTMCNINLPRTDYHLRKDNPVEKLFWGKFPLERATSFFFYRKGSDFRQVLHQLKYGGQKEIGAIMGRYMASELQASDFFHGVDVIIPIPLHKKKQQIRGYNQSEWISRGIMAVTGIPVDTEAIIRRKNTETQTQKSALERWENVDGIFELHRSEYLAGKHILIVDDVLTTGATTVACASRLAEIEGVRISVLTLAMAE	not soluble
PTTRGYGETRGIVKENGLHTVCEEAGCPNIGECWDKKHATFMIMGDTCTRACAFCNVKTGMPGALDANEPAYVAEATRKLGLQHLVITSVDRDDLADGGAAHFAATIRAVREACPTTTIEILTPDFLRKDGALEVVVAAKPDVFNHNLETVPSRYLSVRPGARYFHSIRLLQRVKELDPSIFTKSGIMVGLGEERHEVLQVMDDLRSAEVDFLTIGQYLQPTRKHHAVMRYVTPDEFAGYQTTAYAKGFLMVSASPMTRSSHHAGDDFAKLKAA	not soluble
MPPKQQLSKAAKAAAALAGGKKSKKKWSKKSMKDRAQHAVILDQEKYDRILKEVPTYRYVSVSVLVDRLKIGGSLARIALRHLEKEGIIKPISKHSKQAIYTRATASE	soluble
SRSYRFSDYLHMSVSFSNDMDLFCGEDSGVFSGESTVDFSSSEVDSWPGDSIACFIEDERHFVPGHDYLSRFQTRSLDASAREDSVAWILKVQAYYNFQPLTAYLAVNYMDRFLYARRLPETSGWPMQLLAVACLSLAAKMEEILVPSLFDFQVAGVKYLFEAKTIKRMELLVLSVLDWRLRSVTPFDFISFFAYKIDPSGTFLGFFISHATEIILSNIKEASFLEYWPSSIAAAAILCVANELPSLSSVVNPHESPETWCDGLSKEKIVRCYRLMKAMAIENNRLNTPKVIAKLRVSVRASSTLTRPSDESSFSSSSPCKRRKLSGYSWVGDETSTSN	soluble
MNVINETANVLKLETGSVTSAKGFSAVGIHTGVKRKRKDLGAIVCEVPASSAAVYTLNKVQAAPLKVTQESIAVEGKLQAMIVNSGIANACTGKRGLDDAYTMRAVGAETFHIPEHYVAVTSTGVIGEFLPMDVITNGIRQLKPEATIEGAHAFNEAILTTDTVEKHTCYQTIVNGKTVTVGGVAKGSGMIHPNMATMLSFVTTDANIDHGHLQGALSAITNETFNRITVDGDTSTNDMVVVMASGLAENEALTPEHPDWANFYKALQLACEDLAKQIARDGEGATKLIEVEVTGAANDQEAGMVAKQIVGSDLVKTAIYGADANWGRIICAIGYSGCEVNQETIDIAIGPIVTLKQSEPTGFSEEEATAYLKEADPVKISVNLHIGNGTGKAWGCDLTYDYVRINAGYRTLEHHHHHH	not soluble
MGSDKIHHHHHHMNKRRNGLSSRSSTKGITTITIDPLMLVEMMHIHDSAFPIGGYTHSFGLETYIQRDIVKDENSLIQWCRTYLYDNLGYGDGILLKETLEVLKKSGSLAAIIEVDRLAHAQKLARESREGSLKMGRQFLQTVLPLQEDESLSQWAQLIRAKEAHGHYATTYGVFSYTRAYPDQMTMIAFLYSSVANLVHNAVRAIPLGQSTGVRVIHQLHEDCLYVAQQVVARSLNDLSNHAIGIELASMEHEHLHSRLFIS	not soluble
MGMAAESQFHVLAVDDSLFDRKLIERLLQKSSCQVTTVDSGSKALEFLGLRQSTDSNDPNAFSKAPVNHQVVEVNLIITDYCMPGMTGYDLLKKVKESSAFRDIPVVIMSSENVPARISRCLEEGAEEFFLKPVRLADLNKLKPHMMKTKLKNQKLEEIETTSKVENGVPTAVADPEIKDSTNIEIEILPLQQDLLLVQQEEQTLSINNKRKSVEEGISTDRARPRFDGIATAV	not soluble
ADMEVIELNKCTSGQSFEVILKPPSFDGVPEFNASLPRRRDPSLEEIQKKLEAAEERRKYQEAELLKHLAEKREHEREVIQKAIEENNNFIKMAKEKLAQKMESNKENREAHLAAMLERLQEKDKHAEEVRKNKELKEEASR	soluble
AIASSAPAPGPAPASLTLWDEEDFQGRRCRLLSDCANVCERGGLPRVRSVKVENGVWVAFEYPDFQGQQFILEKGDYPRWSAWSGSSSHNSNQLLSFRPVLCANHNDSRVTLFEGDNFQGCKFDLVDDYPSLPSMGWASKDVGSLKVSSGAWVAYQYPGYRGYQYVLERDRHSGEFCTYGELGTQAHTGQLQSIRRVQH	soluble
MGSDKIHHHHHHMLRLSRELEVGEATVKRWLAGKGLTIDRLERLAGLCGMVLGDLVREAEEAPGVLAHELTLAQERALSSNIFLSFLFMTILNGIQPDETAADFSVPPREMEAALTRLERLALIDRLRSGRVRPLVDRNMVFRKLPLRNLFETHMKRVFFELDYGAPETIYTSEVVKLSVAGAAQLAELLERFRGEVQSLADRDAEKANKDRDWFGVLCVMRPLEMDPIRNAWWELS	not soluble
MSLFLQPLLAKKIIAEVKKMYEREVIIVNTDGLIMAGTNDERVGQFHEGALICAKERRSVIITKEDETRLKGVKAGINLPVFFDHDVISVFGLTGEPAEIQPFGELLRKMTELFIKESRHLEQSQWRERMLESFMIDWLQLKEWSPSFLEKAQLLGVDLSSRRQMILIQGYEWSPHDIEQMARSWKSSYPADLFIRWGNERILINHEVPQHEQRDRLLRKILHICSFANTASSQYTAAGAGRAVASSSLTDSYEQAEKALAVSLKRKTPIFEEDLKLDMCLTEISPGTRNEFPQRVLGKALEHQELMNTIRTFFHHDLSLKQTAEDMHIHINTLRYRLAKAEQLTGLRFDRTEDVVTMYVALYFLDQDTKEGGSHHHHHH	soluble
MGSDKIHHHHHHMIFKEFGNKNMPTIVFLHGGGLSFWSFKEELSALKNSYRIVTPIIDGHGEDYNNTFISISNSAKHVINYIQESCNGHVFCICGLSLGAQILVEVLSLKHNISEYAVIESALVYPIKLSLNLMVAMNSLAYGLIKKKWFAKLQAKTLNVPQELFETYYKESSKMTKETLINITKSNGSYPMPNSICNTTASTLILVGERELSIMKKSAKLLNETIDNSILNIIPKAKHGEISLAYPKQYLDLLNKLFNSKK	not soluble
MSDSQTLVVKLGTSVLTGGSRRLNRAHIVELVRQCAQLHAAGHRIVIVTSGAIAAGREHLGYPELPATIASKQLLAAVGQSRLIQLWEQLFSIYGIHVGQMLLTRADMEDRERFLNARDTLRALLDNNIVPVINENDAVATAEIKVGDNDNLSALAAILAGADKLLLLTDQKGLYTADPRRNPQAELIKDVYGIDDALRAIAGDSVSGLGTGGMSTKLQAADVACRAGIDTIIAAGSKPGVIGDVMEGISVGTLFHAQATPLENRKRWIFGAPPAGEITVDEGATAAILERGSSLLPKGIKSVTGNFSRGEVIRICNLEGRDIAHGVSRYNSDALRRIAGHHSQEIDAILGYEYGPVAVHRDDMITR	not soluble
MGHHHHHHSHMLKKAKMAKDRKSRKKPVEVKKGKDPNAPKRPMSAYMLWLNASREKIKSDHPGISITDLSKKAGEIWKGMSKEKKEEWDRKAEDARRDYEKAMKEYEGGRG	soluble
MKSPAPSRPQKMALIPACIFLCFAALSVQAEETPVTPQPPDILLGPLFNDVQNAKLFPDQKTFADAVPNSDPLMILADYRMQQNQSGFDLRHFVNVNFTLPKEGEKYVPPEGQSLREHIDGLWPVLTRSTENTEKWDSLLPLPEPYVVPGGRFREVYYWDSYFTMLGLAESGHWDKVADMVANFAHEIDTYGHIPNGNRSYYLSRSQPPFFALMVELLAQHEGDAALKQYLPQMQKEYAYWMDGVENLQAGQQEKRVVKLQDGTLLNRYWDDRDTPRPESWVEDIATAKSNPNRPATEIYRDLRSAAASGWDFSSRWMDNPQQLNTLRTTSIVPVDLNSLMFKMEKILARASKAAGDNAMANQYETLANARQKGIEKYLWNDQQGWYADYDLKSHKVRNQLTAAALFPLYVNAAAKDRANKMATATKTHLLQPGGLNTTSVKSGQQWDAPNGWAPLQWVATEGLQNYGQKEVAMDISWHFLTNVQHTYDREKKLVEKYDVSTTGTGGGGGEYPLQDGFGWTNGVTLKMLDLICPKEQPCDNVPATRPTVKSATTQPSTKEAQPTPLEHHHHHH	soluble
MGSDKIHHHHHHIANVETSSRNAIGFNVLSNAAETRATPTTNTNLKNTDFDVFAFTADGTAFMGKNDTEFEHDGVKIVYKNGKWDYDNASDLRYWPTEALDFYAFNPGTVSEDMMAFYSWEATKDVQKISYTCMDEYGSGTTHANYDVMYAMAKGQTKDMNNGIVKFNFKHILSQVVFKAKTQYDNMQVDIDVIKIHNFKFAGAFTLPAAADGTGSWSSSDLAFPHAFTVVKNANITVNSNTEATDITTNTPMLNIPQELTAWKVSETATKSKLEADNAKQCYLEIACKIRQSGAYLLGSASEYKTIYVPFGDTWEQGKRHIYTLIFGGGYDDQGEAVLNPIQFDAETTGWVDADKDVNVQP	not soluble
MLEDLRANSWSLRPCCMVLAYRIAHFCSVWRKKNVLNNLWAAPVLVLYRVITECLFGYEIQAAATIGRRFTIHHGYAVVINKHVVAGDDFTIRHGVTIGNRGADSLACPVIGNGVELGANVILLGDITIGNHVTIGAGSVVLDSIPDHALVVGEKARVKVST	not soluble
